B1: human CBS deletion mutant Δ414-551 (enzyme)
chain: MPSETPQAEVGPTGCPHRSGPHSAKGSLEKGSPEDKEAKEPLWIRPDAPSRCTWQLGRPASESPHHHTAPAKSPKILPDILKKIGDTPMVRINKIGKKFGLKCELLAKCEFFNAGGSVKDRISLRMIEDAERDGTLKPGDTIIEPTSGNTGIGLALAAAVRGYRCIIVMPEKMSSEKVDVLRALGAEIVRTPTNARFDSPESHVGVAWRLKNEIPNSHILDQYRNASNPLAHYDTTADEILQQCDGKLDMLVASVGTGGTITGIARKLKEKCPGCRIIGVDPEGSILAEPEELNQTEQTTYEVEGIGYDFIPTVLDRTVVDKWFKSNDEEAFTFARMLIAQEGLLCGGSAGSTVAVAVKAAQELQEGQRCVVILPDSVRNYMTKFLSDRWMLQKGFLKEEDLTEKKPWWWHLR
notes: Lacks the entire C-terminal regulatory region; No fusion partner, E. coli lysate; Reported as a dimer
B2: human CBS deletion mutant Δ489-551 (enzyme)
chain: MPSETPQAEVGPTGCPHRSGPHSAKGSLEKGSPEDKEAKEPLWIRPDAPSRCTWQLGRPASESPHHHTAPAKSPKILPDILKKIGDTPMVRINKIGKKFGLKCELLAKCEFFNAGGSVKDRISLRMIEDAERDGTLKPGDTIIEPTSGNTGIGLALAAAVRGYRCIIVMPEKMSSEKVDVLRALGAEIVRTPTNARFDSPESHVGVAWRLKNEIPNSHILDQYRNASNPLAHYDTTADEILQQCDGKLDMLVASVGTGGTITGIARKLKEKCPGCRIIGVDPEGSILAEPEELNQTEQTTYEVEGIGYDFIPTVLDRTVVDKWFKSNDEEAFTFARMLIAQEGLLCGGSAGSTVAVAVKAAQELQEGQRCVVILPDSVRNYMTKFLSDRWMLQKGFLKEEDLTEKKPWWWHLRVQELGLSAPLTVLPTITCGHTIEILREKGFDQAPVVDEAGVILGMVTLGNMLSSLLAGKVQPSDQVGKVIYKQFK
notes: No fusion partner, E. coli lysate; Reported as a dimer
B3: human CBS deletion mutant Δ442-551 (enzyme)
chain: MPSETPQAEVGPTGCPHRSGPHSAKGSLEKGSPEDKEAKEPLWIRPDAPSRCTWQLGRPASESPHHHTAPAKSPKILPDILKKIGDTPMVRINKIGKKFGLKCELLAKCEFFNAGGSVKDRISLRMIEDAERDGTLKPGDTIIEPTSGNTGIGLALAAAVRGYRCIIVMPEKMSSEKVDVLRALGAEIVRTPTNARFDSPESHVGVAWRLKNEIPNSHILDQYRNASNPLAHYDTTADEILQQCDGKLDMLVASVGTGGTITGIARKLKEKCPGCRIIGVDPEGSILAEPEELNQTEQTTYEVEGIGYDFIPTVLDRTVVDKWFKSNDEEAFTFARMLIAQEGLLCGGSAGSTVAVAVKAAQELQEGQRCVVILPDSVRNYMTKFLSDRWMLQKGFLKEEDLTEKKPWWWHLRVQELGLSAPLTVLPTITCGHTIEILREK
notes: as for B2
B4: human CBS deletion mutant Δ551 (enzyme)
chain: MPSETPQAEVGPTGCPHRSGPHSAKGSLEKGSPEDKEAKEPLWIRPDAPSRCTWQLGRPASESPHHHTAPAKSPKILPDILKKIGDTPMVRINKIGKKFGLKCELLAKCEFFNAGGSVKDRISLRMIEDAERDGTLKPGDTIIEPTSGNTGIGLALAAAVRGYRCIIVMPEKMSSEKVDVLRALGAEIVRTPTNARFDSPESHVGVAWRLKNEIPNSHILDQYRNASNPLAHYDTTADEILQQCDGKLDMLVASVGTGGTITGIARKLKEKCPGCRIIGVDPEGSILAEPEELNQTEQTTYEVEGIGYDFIPTVLDRTVVDKWFKSNDEEAFTFARMLIAQEGLLCGGSAGSTVAVAVKAAQELQEGQRCVVILPDSVRNYMTKFLSDRWMLQKGFLKEEDLTEKKPWWWHLRVQELGLSAPLTVLPTITCGHTIEILREKGFDQAPVVDEAGVILGMVTLGNMLSSLLAGKVQPSDQVGKVIYKQFKQIRLTDTLGRLSHILEMDHFALVVHEQIQYHSTGKSSQRQMVFGVVTAIDLLNFVAAQERDQ
notes: Lacks the C-terminal lysine; No fusion partner, E. coli lysate; Reported as a tetramer; also called pKK CBS Δ551
B5: human CBS double deletion mutant Δ1-70 Δ401-551 (expressed without fusion partner) (enzyme)
chain: AKSPKILPDILKKIGDTPMVRINKIGKKFGLKCELLAKCEFFNAGGSVKDRISLRMIEDAERDGTLKPGDTIIEPTSGNTGIGLALAAAVRGYRCIIVMPEKMSSEKVDVLRALGAEIVRTPTNARFDSPESHVGVAWRLKNEIPNSHILDQYRNASNPLAHYDTTADEILQQCDGKLDMLVASVGTGGTITGIARKLKEKCPGCRIIGVDPEGSILAEPEELNQTEQTTYEVEGIGYDFIPTVLDRTVVDKWFKSNDEEAFTFARMLIAQEGLLCGGSAGSTVAVAVKAAQELQEGQRCVVILPDSVRNYMTKFLSDRWMLQKGFLKEE
notes: pKK construct; E. coli lysate; Reported as a dimer; also called CBS DD
B6: human CBS deletion mutant Δ1-39 (enzyme)
chain: EPLWIRPDAPSRCTWQLGRPASESPHHHTAPAKSPKILPDILKKIGDTPMVRINKIGKKFGLKCELLAKCEFFNAGGSVKDRISLRMIEDAERDGTLKPGDTIIEPTSGNTGIGLALAAAVRGYRCIIVMPEKMSSEKVDVLRALGAEIVRTPTNARFDSPESHVGVAWRLKNEIPNSHILDQYRNASNPLAHYDTTADEILQQCDGKLDMLVASVGTGGTITGIARKLKEKCPGCRIIGVDPEGSILAEPEELNQTEQTTYEVEGIGYDFIPTVLDRTVVDKWFKSNDEEAFTFARMLIAQEGLLCGGSAGSTVAVAVKAAQELQEGQRCVVILPDSVRNYMTKFLSDRWMLQKGFLKEEDLTEKKPWWWHLRVQELGLSAPLTVLPTITCGHTIEILREKGFDQAPVVDEAGVILGMVTLGNMLSSLLAGKVQPSDQVGKVIYKQFKQIRLTDTLGRLSHILEMDHFALVVHEQIQYHSTGKSSQRQMVFGVVTAIDLLNFVAAQERDQK
notes: The sense primer brings in an Nco I site at the 5' end; No fusion partner, E. coli lysate; Reported as a tetramer; also called pKK CBS Δ1-39
B7: human CBS deletion mutant Δ1-70 (enzyme)
chain: AKSPKILPDILKKIGDTPMVRINKIGKKFGLKCELLAKCEFFNAGGSVKDRISLRMIEDAERDGTLKPGDTIIEPTSGNTGIGLALAAAVRGYRCIIVMPEKMSSEKVDVLRALGAEIVRTPTNARFDSPESHVGVAWRLKNEIPNSHILDQYRNASNPLAHYDTTADEILQQCDGKLDMLVASVGTGGTITGIARKLKEKCPGCRIIGVDPEGSILAEPEELNQTEQTTYEVEGIGYDFIPTVLDRTVVDKWFKSNDEEAFTFARMLIAQEGLLCGGSAGSTVAVAVKAAQELQEGQRCVVILPDSVRNYMTKFLSDRWMLQKGFLKEEDLTEKKPWWWHLRVQELGLSAPLTVLPTITCGHTIEILREKGFDQAPVVDEAGVILGMVTLGNMLSSLLAGKVQPSDQVGKVIYKQFKQIRLTDTLGRLSHILEMDHFALVVHEQIQYHSTGKSSQRQMVFGVVTAIDLLNFVAAQERDQK
notes: The sense primer brings in an Nco I site at the 5' end; No fusion partner, E. coli lysate; Reported as a tetramer; also called pKK CBS Δ1-70
B8: human CBS deletion mutant Δ497-551 (enzyme)
chain: MPSETPQAEVGPTGCPHRSGPHSAKGSLEKGSPEDKEAKEPLWIRPDAPSRCTWQLGRPASESPHHHTAPAKSPKILPDILKKIGDTPMVRINKIGKKFGLKCELLAKCEFFNAGGSVKDRISLRMIEDAERDGTLKPGDTIIEPTSGNTGIGLALAAAVRGYRCIIVMPEKMSSEKVDVLRALGAEIVRTPTNARFDSPESHVGVAWRLKNEIPNSHILDQYRNASNPLAHYDTTADEILQQCDGKLDMLVASVGTGGTITGIARKLKEKCPGCRIIGVDPEGSILAEPEELNQTEQTTYEVEGIGYDFIPTVLDRTVVDKWFKSNDEEAFTFARMLIAQEGLLCGGSAGSTVAVAVKAAQELQEGQRCVVILPDSVRNYMTKFLSDRWMLQKGFLKEEDLTEKKPWWWHLRVQELGLSAPLTVLPTITCGHTIEILREKGFDQAPVVDEAGVILGMVTLGNMLSSLLAGKVQPSDQVGKVIYKQFKQIRLTDTL
notes: as for B2
B9: human CBS deletion mutant Δ544-551 (enzyme)
chain: MPSETPQAEVGPTGCPHRSGPHSAKGSLEKGSPEDKEAKEPLWIRPDAPSRCTWQLGRPASESPHHHTAPAKSPKILPDILKKIGDTPMVRINKIGKKFGLKCELLAKCEFFNAGGSVKDRISLRMIEDAERDGTLKPGDTIIEPTSGNTGIGLALAAAVRGYRCIIVMPEKMSSEKVDVLRALGAEIVRTPTNARFDSPESHVGVAWRLKNEIPNSHILDQYRNASNPLAHYDTTADEILQQCDGKLDMLVASVGTGGTITGIARKLKEKCPGCRIIGVDPEGSILAEPEELNQTEQTTYEVEGIGYDFIPTVLDRTVVDKWFKSNDEEAFTFARMLIAQEGLLCGGSAGSTVAVAVKAAQELQEGQRCVVILPDSVRNYMTKFLSDRWMLQKGFLKEEDLTEKKPWWWHLRVQELGLSAPLTVLPTITCGHTIEILREKGFDQAPVVDEAGVILGMVTLGNMLSSLLAGKVQPSDQVGKVIYKQFKQIRLTDTLGRLSHILEMDHFALVVHEQIQYHSTGKSSQRQMVFGVVTAIDLLNFV
notes: No fusion partner, E. coli lysate; Reported as a tetramer

The data set deals with the molecule itself. Kind of data set: self-association; native PAGE and Western blot of E. coli lysate soluble fraction. The protocol: Western blot analysis of crude cell lysates under both denaturing and native conditions was performed as described previously (Janosik, 2001, supra) with some modifications. Soluble fractions of E. coli lysates containing the expressed mutant proteins were mixed with sample buffer and run on a 6% native PAGE without a stacking gel. The final composition of the sample buffer was: 50 mM Tris-HCl, pH 8.9, 1 mM DTT, 10% glycerol, 0.001% bromphenol blue. Detection of heme was performed using a previously described method that relies on heme peroxidase activity (Vargas et al., 1993, Anal. Biochem. 209(2), 323-6).
With B1, the binding result was “binds”.

Consider B2, for which the binding result is listed as “binds”.

On to B3, for which the binding result is given as “binds”.

With B4, the binding result is reported as “binds”.

With B5, the binding result was “binds”.

As for B6, the binding result is “binds”.

Regarding B7, the binding result is “binds”.

With B8, the binding result is “binds”.

B9: the binding result is on record as “binds”.
